Consider eight substances from patent publication US20250171549A1.

Assay [1] has as its target human CCR8 (human) (UniProt P51685). Briefly: flow cytometry, primary human Tregs (PBMC, CD4+CD25+CD127- gate). On the technique in general: Flow cytometry measures light scatter and fluorescence of single cells or particles in a stream.
In assay [2] the target is cynomolgus monkey CCR8 (comprising threonine at position four) (cynomolgus monkey). Kind of assay: flow cytometry, primary cynomolgus Tregs (PBMC, CD4+CD25+CD127- gate).
The target of assay [3] is P_1-12 construct (truncated N-terminal peptide of human CCR8 fused to V5 tag, chicken albumin, FLAG tag, BAP and H3G) (human). Kind of assay: flow cytometry, construct on streptavidin beads.
In assay [4] the target is P_19-30 construct (truncated N-terminal peptide of human CCR8 fused to V5 tag, chicken albumin, FLAG tag, BAP and H3G) (human). Briefly: flow cytometry, construct on streptavidin beads.
The target in assay [5] is P_7-18 construct (truncated N-terminal peptide of human CCR8 fused to V5 tag, chicken albumin, FLAG tag, BAP and H3G) (human). Kind of assay: flow cytometry, construct on streptavidin beads.
Assay [6] addresses P_13-24 construct (truncated N-terminal peptide of human CCR8 fused to V5 tag, chicken albumin, FLAG tag, BAP and H3G) (human). Briefly: flow cytometry, construct on streptavidin beads.
For assay [7], the target named is P_1-35 construct (full-length N-terminal peptide of human CCR8 fused to V5 tag, chicken albumin, FLAG tag, BAP and H3G) (human). Briefly: flow cytometry, construct on streptavidin beads.
The target of assay [8] is T1, P_25-35 construct (truncated N-terminal peptide of human CCR8 fused to V5 tag, chicken albumin, FLAG tag, BAP and H3G) (human).
T1 sequence (chain, biotinylated in vivo at BAP): CDAELIQTNGK
Briefly: flow cytometry, construct on streptavidin beads.

A further assay addresses murine CCR8 (murine) (UniProt P56484). Briefly: flow cytometry, HEK293T transfectants, 5 ug/mL.
In a further assay the target is rat CCR8 (rat). Briefly: flow cytometry, HEK293T transfectants, 5 ug/mL.
The target in assay [9] is cynomolgus monkey CCR8 (comprising threonine at position four) (cynomolgus monkey). Kind of assay: flow cytometry, primary cynomolgus Tregs, purified antibody 20 ug/ml.
Assay [10] concerns the target human CCR8 with an A27G point mutation (human) (UniProt P51685). Briefly: flow cytometry, HEK293T transfectants, 5 ug/mL.
The target of assay [11] is human CCR8 (human) (UniProt P51685). Briefly: flow cytometry, HuT78 cells, 5 ug/mL.

“And” between values parts separate entries of the source, which are not always exact repeats. Identical values can stand only once.

anti-human CCR8 antibody clone 433H (BD 747578), sequence (VH): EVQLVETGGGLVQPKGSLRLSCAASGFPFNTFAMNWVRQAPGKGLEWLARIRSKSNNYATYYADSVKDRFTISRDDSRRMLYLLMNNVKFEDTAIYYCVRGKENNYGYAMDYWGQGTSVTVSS
anti-human CCR8 antibody clone 433H (BD 747578), sequence (VL): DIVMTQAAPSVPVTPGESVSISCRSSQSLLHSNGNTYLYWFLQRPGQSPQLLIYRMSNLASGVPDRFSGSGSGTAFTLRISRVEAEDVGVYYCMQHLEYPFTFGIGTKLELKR
human CCR8 (human), sequence (P51685 whole entry): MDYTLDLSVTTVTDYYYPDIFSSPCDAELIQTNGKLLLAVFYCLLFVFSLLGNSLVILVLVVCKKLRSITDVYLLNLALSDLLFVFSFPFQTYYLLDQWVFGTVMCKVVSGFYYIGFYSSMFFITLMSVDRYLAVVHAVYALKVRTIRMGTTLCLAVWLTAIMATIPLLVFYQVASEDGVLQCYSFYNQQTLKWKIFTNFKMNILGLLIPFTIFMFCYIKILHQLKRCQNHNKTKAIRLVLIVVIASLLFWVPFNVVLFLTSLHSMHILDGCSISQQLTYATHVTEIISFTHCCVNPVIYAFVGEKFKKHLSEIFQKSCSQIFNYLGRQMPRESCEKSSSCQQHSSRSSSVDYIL
P_1-35 construct (full-length N-terminal peptide of human CCR8 fused to V5 tag, chicken albumin, FLAG tag, BAP and H3G) (human), sequence (chain, as listed by the source): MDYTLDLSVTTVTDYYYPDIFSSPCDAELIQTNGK
cynomolgus monkey CCR8 (comprising threonine at position four) (cynomolgus monkey), sequence (O97665 other isoform, or with tags, fused parts or gaps): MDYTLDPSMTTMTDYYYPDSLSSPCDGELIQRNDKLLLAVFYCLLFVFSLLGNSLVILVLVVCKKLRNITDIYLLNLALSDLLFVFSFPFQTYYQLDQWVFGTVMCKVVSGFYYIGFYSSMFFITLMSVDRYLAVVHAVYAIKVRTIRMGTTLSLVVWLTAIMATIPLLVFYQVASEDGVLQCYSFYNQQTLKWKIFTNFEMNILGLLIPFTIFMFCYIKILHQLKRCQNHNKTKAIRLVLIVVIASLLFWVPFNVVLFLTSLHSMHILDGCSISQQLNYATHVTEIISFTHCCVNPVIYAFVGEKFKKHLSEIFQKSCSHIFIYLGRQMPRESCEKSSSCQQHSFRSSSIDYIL
rat CCR8 (rat), sequence (P56484 other isoform, or with tags, fused parts or gaps): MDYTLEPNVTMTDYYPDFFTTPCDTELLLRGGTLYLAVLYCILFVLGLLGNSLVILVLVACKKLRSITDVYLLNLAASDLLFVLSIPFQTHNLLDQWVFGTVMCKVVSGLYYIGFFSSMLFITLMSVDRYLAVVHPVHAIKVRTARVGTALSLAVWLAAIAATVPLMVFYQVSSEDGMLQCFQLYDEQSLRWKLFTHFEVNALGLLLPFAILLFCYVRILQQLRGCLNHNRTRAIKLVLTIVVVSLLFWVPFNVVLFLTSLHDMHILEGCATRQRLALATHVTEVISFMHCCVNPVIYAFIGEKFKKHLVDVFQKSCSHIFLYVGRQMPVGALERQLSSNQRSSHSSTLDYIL
human CCR8 with an A27G point mutation (human), sequence (P51685 whole entry A27G): as the sequence (P51685 whole entry) above, with A27G counted along it
murine CCR8 (murine), sequence (P56484 whole entry): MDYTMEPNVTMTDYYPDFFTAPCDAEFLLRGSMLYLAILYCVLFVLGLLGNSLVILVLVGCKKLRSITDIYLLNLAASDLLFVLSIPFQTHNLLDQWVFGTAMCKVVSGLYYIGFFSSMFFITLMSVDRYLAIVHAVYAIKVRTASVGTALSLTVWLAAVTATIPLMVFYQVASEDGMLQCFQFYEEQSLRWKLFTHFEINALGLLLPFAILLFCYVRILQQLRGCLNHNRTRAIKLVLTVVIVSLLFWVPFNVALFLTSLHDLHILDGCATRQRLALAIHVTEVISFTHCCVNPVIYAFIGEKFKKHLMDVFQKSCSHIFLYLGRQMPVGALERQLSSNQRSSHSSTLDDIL

In the case of Cyno IgG2a (antibody), the CCR8+CD127-CD25+CD4, % positive is 0% and 0.1% with human CCR8 (human) [1]; 0.3% and 0.8% in assay [2].

For the substance Hu IgG2b (antibody), the CCR8+CD127-CD25+CD4, % positive is 1.5% and 0% and 1.9% in the assay with human CCR8 (human) [1]; 11.9% and 11.3% in assay [2].

Regarding Negative control (Table 6), the Median Fluorescence of Sample/Median Fluorescence of Negative Control in assay [3] was 1; in assay [4], 1; in assay [5], 1; in assay [6] it was 1; in assay [7], 1; in [8] it was 1.1.

Regarding SA214G2 (antibody), the binding by FACS (read-out not named) with murine CCR8 (murine) was 56800; in the assay with rat CCR8 (rat), 1590.

On to “anti-FLAG antibody (clone M2, Sigma F3165/F1804)”, for which the Median Fluorescence of Sample/Median Fluorescence of Negative Control was 596 in assay [3]; 590 in [4]; 589 in assay [5]; 628 in assay [6]; 522 in [7]; 582 in assay [8].

Turning to “anti-V5 antibody (clone SV5-Pk1; AbD Serotec, MCA 1360)”, the Median Fluorescence of Sample/Median Fluorescence of Negative Control in [3] was determined as 1090; in assay [4], 1020; in assay [5], 1090; in assay [6] it was 1300; in [7], 953; in assay [8], 1090.

With “anti-human CCR8 antibody clone 433H (BD 747578)”, the CCR8+CD127-CD25+CD4, % positive in assay [9] is 66.2% and 63.7%. The Median Fluorescence of Sample/Median Fluorescence of Negative Control was 0.9 in assay [3]; 0.9 in [4]; 0.9 in assay [5]; 300 in [6]; 290 in [7]; 0.9 in assay [8].

For the substance “anti-human CCR8 antibody clone L263G8 (BioLegend, 360602)”, the binding by FACS (read-out not named) is 41400 in [10] and 4500 with human CCR8 (human) [11]. The Median Fluorescence of Sample/Median Fluorescence of Negative Control in assay [3] turned out to be 0.9; in [4], 0.9; in assay [5] it was 0.9; in [6], 285; in [7] it was 751; in assay [8], 0.9.
